Substitutions are numbered along the chain they refer to.
B1: IMB362 (antibody, V domains shown)
VH: QVQLQQPGAELVRPGASVKLSCKASGYTFTSYWINWVKQRPGQGLEWIGNIYPSDSYTNYNQKFKDKATLTVDKSSSTAYMQLSSPTSEDSAVYYCTRSWRGNSFDYWGQGTTLTVSS
VL: DIVMTQSPSSLTVTAGEKVTMSCKSSQSLLNSGNQKNYLTWYQQKPGQPPKLLIYWASTRESGVPDRFTGSGSGTDFTLTISSVQAEDLAVYYCQNDYSYPFTFGSGTKLEIKR
B2: Ab10 (antibody, V domains shown)
VH: EVMLVESGGGLVKPGGSLKLSCAASGFTFSSYTMSWVRQTPEKRLEWVATISVIGGNTYYVDSVKGRFTISRDKAKNTLYLQMSSLRSEDTALYYCARLGQTQRNAMDYWGQGTSVTVSS
VL: DIVMTQSPSSLSVSAGEKVTMSCKSSQSLLNSGNQKNYLAWYQQKPGQPPKLLIYGASTRESGVPDRFTGSGSGTDFTLTISSVQAEDLAVYYCQNDYSYPLTFGAGTKLELK
B3: Ab17 (antibody, V domains shown)
VH: QVQLKESGPGLVAPSQSLSITCTVSGFSLTSYAISWVRQPPGKGLEWLGEIWTGGGTNYNSALKSRLSISKDNSKSQVFLKMNSLQTDDTARYYCGRLSYGNSLDYWGQGTTLTVSS
VL: B2 VL with S12T, S14T, A40T, G56W, I81V, D97N, Y98F, S99I, A106P
B4: Ab15 (antibody, V domains shown)
VH: EVMLVESGGDLVKPGGSLKLSCAASGFTFSTYTMSWVRQTPEKRLEWVATIVGGGGYTYYLDSVKGRFTISRDNAKNTLYLQMISLRSEDTALYYCARMGLTQRNALDYWGQGTSITVSS
VL: B2 VL with A15E, M21L, S22N, L30F, S73F, Y98H, S99T, T108A
B5: humanized Ab17 (VH5×VLN1) (antibody, V domains shown)
VH: QVQLQESGPGLVKPSQTLSLTCTVSGFSLTSYAISWVRQPAGKGLEWLGEIWTGGGTNYNSALKSRVSISKDNSKSQVFLKLSSVTAADTARYYCGRLSYGNSLDYWGQGTLVTVSS
VL: DIVMTQSPDSTTVLLGERATINCKSSQSLLNSGNQKNYLAWYQQKPGQPPKLLIYWASTRESGVPDRFSGSGSGTDFTLTISSLQAEDVAVYYCQNNFIYPLTFGPGTKLEIK
B6: humanized Ab10 (VH3×VLN1) (antibody, V domains shown)
VH: B2 VH with M3Q, K13Q, K19R, T40A, S84N, S88A, S115L
VL: B2 VL with S9D, S12A, K18R, V19A, S22N, T69S, V84L, L89V, L112I
B7: humanized Ab10 (VHN1×VLN1) (antibody, V domains shown)
VH: B2 VH with K13Q, K19R, E42G, A75S, S84N, S88A, L93V, S115L
VL: B2 VL with S9D, S12A, K18R, V19A, S22N, T69S, V84L, L89V, L112I
B8: humanized Ab15 (VH3×VLN1) (antibody, V domains shown)
VH: B4 VH with D10G, L11V, K13Q, K19R, I84N, S88T, S115L
VL: B5 VL with T11L, T12A, L14S, L30F, W56G, S73F, N97D, F98H, I99T, P106A
B9: humanized Ab17 (VH1×VLN1) (antibody, V domains shown)
VH: B5 VH with Q5K, Q16E, A41P, T86Q
VL: B5 VL
B10: humanized Ab15 (VHN1×VL2) (antibody, V domains shown)
VH: B4 VH with D10G, K13Q, K19R, E42G, A75S, I84N, S88A, L93V
VL: DIVMTQSPLSLPVTPGEPASISCKSSQSLFNSGNQKNYLAWYLQKPGQPPKLLIYGASTRESGVPDRFTGSGFGTDFTLKISRVEAEDVGVYYCQNDHTYPLTFGAGTKLEIK
B11: chAb10 (antibody, V domains shown)
VH: B2 VH
VL: B2 VL
B12: chAb17 (antibody, V domains shown)
VH: B3 VH
VL: B2 VL with S12T, S14T, A40T, G56W, I81V, D97N, Y98F, S99I, A106P
B13: chAb15 (antibody, V domains shown)
VH: B4 VH
VL: B2 VL with A15E, M21L, S22N, L30F, S73F, Y98H, S99T, T108A
B14: IMAB362 (antibody, V domains shown)
VH: B1 VH
VL: B1 VL

The binders below were run against SNU620 cells (UniProt P56856 1-261) (assay: FACS cell binding; SNU620 cells).
B1 showed an EC50 of ~7.54 µM.

The binders below were run against T1, human Claudin18.2 (CLDN18.2) (UniProt P56856 1-261) (assay: FACS cell binding; SNU620 cells).
With B2 the EC50 was 5.54 nM. B3 showed an EC50 of 10.8 nM. B4 was tested, and the EC50 was 5.32 nM.

Each binder was assayed against T1, human Claudin18.2 (CLDN18.2) (assay: FACS cell binding; KATO III cells).
B2 was tested, and the EC50 was 20.9 nM. Work on B3 yielded an EC50 of 39.3 nM. For B4, the EC50 was 27.2 nM.

Each binder was assayed against T1, human Claudin18.2 (CLDN18.2) (assay: FACS cell binding; GAXC031 cells).
For B5, the EC50 was 48.9 nM. Binder B6 has an EC50 of 60.9 nM. With B7 the EC50 was 43.8 nM. B8 showed an EC50 of 28.6 nM. With B9 the EC50 was 43.7 nM. Work on B10 yielded an EC50 of 32.2 nM. Binder B11 has an EC50 of 49.2 nM. B12 gave an EC50 of 47 nM. Work on B13 yielded an EC50 of 25.1 nM.

These binders were tested against GAXC031 cells (UniProt P56856 1-261) (assay: FACS cell binding; GAXC031 cells).
B14 showed an EC50 of 452 nM.

From patent US20230095569A1 (published 2023)
